# Test results: US20240158455A1, “MULTIPLE SCLEROSIS ASSOCIATED AUTOANTIGENS, AND USE THEREOF IN THERAPY AND DIAGNOSIS” (NEOGAP Therapeutics AB, priority 2017, published 2024)
# Target: HLA DRB5 01:01 (Homo sapiens, UniProt P01903+Q30154)
# Experiment: Competitive binding assay of overlapping peptides to HLA
# Conditions: competitive binding to HLA DRB5 01:01, compared with reference H1N1 influenza peptide
row,Molecule,Binding affinity
1,Aa 02-16-SEQ ID NO: 1 (VEAFCATWKLTNSQN; listed as Homo sapiens) [FABP7 #1],+
2,Aa 07-21-SEQ ID NO: 1 (ATWKLTNSQNFDEYM; listed as Homo sapiens) [FABP7 #2],+
3,Aa 12-26-SEQ ID NO: 1 (TNSQNFDEYMKALGV; listed as Homo sapiens) [FABP7 #3],−
4,Aa 17-31-SEQ ID NO: 1 (FDEYMKALGVGFATR; listed as Homo sapiens) [FABP7 #4],++
5,Aa 22-36-SEQ ID NO: 1 (KALGVGFATRQVGNV; listed as Homo sapiens) [FABP7 #5],−
6,Aa 27-41-SEQ ID NO: 1 (GFATRQVGNVTKPTV; listed as Homo sapiens) [FABP7 #6],+
7,Aa 28-42-SEQ ID NO: 2 (AVITGACDKDSQCGG; listed as Homo sapiens) [PROK2 #1],−
8,Aa 32-46-SEQ ID NO: 1 (QVGNVTKPTVIISQE; listed as Homo sapiens) [FABP7 #7],−
9,Aa 33-47-SEQ ID NO: 2 (ACDKDSQCGGGMCCA; listed as Homo sapiens) [PROK2 #2],−
10,Aa 37-51-SEQ ID NO: 1 (TKPTVIISQEGDKVV; listed as Homo sapiens) [FABP7 #8],−
11,Aa 38-52-SEQ ID NO: 2 (SQCGGGMCCAVSIWV; listed as Homo sapiens) [PROK2 #3],−
12,Aa 42-56-SEQ ID NO: 1 (IISQEGDKVVIRTLS; listed as Homo sapiens) [FABP7 #9],−
13,Aa 43-57-SEQ ID NO: 2 (GMCCAVSIWVKSIRI; listed as Homo sapiens) [PROK2 #4],+
14,Aa 47-61-SEQ ID NO: 1 (GDKVVIRTLSTFKNT; listed as Homo sapiens) [FABP7 #10],+
15,Aa 48-62-SEQ ID NO: 2 (VSIWVKSIRICTPMG; listed as Homo sapiens) [PROK2 #5],+
16,Aa 52-66-SEQ ID NO: 1 (IRTLSTFKNTEISFQ; listed as Homo sapiens) [FABP7 #11],−
17,Aa 53-67-SEQ ID NO: 2 (KSIRICTPMGKLGDS; listed as Homo sapiens) [PROK2 #6],+++
18,Aa 57-71-SEQ ID NO: 1 (TFKNTEISFQLGEEF; listed as Homo sapiens) [FABP7 #12],−
19,Aa 58-72-SEQ ID NO: 2 (CTPMGKLGDSCHPLT; listed as Homo sapiens) [PROK2 #7],−
20,Aa 59-69 + 96-99-SEQ ID NO: 2 [PROK2 #15],−
21,Aa 62-76-SEQ ID NO: 1 (EISFQLGEEFDETTA; listed as Homo sapiens) [FABP7 #13],−
22,Aa 63-77-SEQ ID NO: 2 (KLGDSCHPLTRKNNF; listed as Homo sapiens) [PROK2 #8],−
23,Aa 64-69 + 96-104-SEQ ID NO: 2 [PROK2 #16],+
24,Aa 67-81-SEQ ID NO: 1 (LGEEFDETTADDRNC; listed as Homo sapiens) [FABP7 #14],−
25,Aa 68-82-SEQ ID NO: 2 (CHPLTRKNNFGNGRQ; listed as Homo sapiens) [PROK2 #9],+
26,Aa 69 + 96-109-SEQ ID NO: 2 [PROK2 #17],−
27,Aa 72-86-SEQ ID NO: 1 (DETTADDRNCKSVVS; listed as Homo sapiens) [FABP7 #15],−
28,Aa 73-87-SEQ ID NO: 2 (RKNNFGNGRQERRKR; listed as Homo sapiens) [PROK2 #10],+

row,Molecule,Binding affinity
1,Aa 77-91-SEQ ID NO: 1 (DDRNCKSVVSLDGDK; listed as Homo sapiens) [FABP7 #16],−
2,Aa 78-92-SEQ ID NO: 2 (GNGRQERRKRKRSKR; listed as Homo sapiens) [PROK2 #11],−
3,Aa 82-96-SEQ ID NO: 1 (KSVVSLDGDKLVHIQ; listed as Homo sapiens) [FABP7 #17],−
4,Aa 83-97-SEQ ID NO: 2 (ERRKRKRSKRKKEVP; listed as Homo sapiens) [PROK2 #12],−
5,Aa 87-101-SEQ ID NO: 1 (LDGDKLVHIQKWDGK; listed as Homo sapiens) [FABP7 #18],−
6,Aa 88-102-SEQ ID NO: 2 (KRSKRKKEVPFFGRR; listed as Homo sapiens) [PROK2 #13],−
7,Aa 92-106-SEQ ID NO: 1 (LVHIQKWDGKETNFV; listed as Homo sapiens) [FABP7 #19],−
8,Aa 93-107-SEQ ID NO: 2 (KKEVPFFGRRMHHTC; listed as Homo sapiens) [PROK2 #14],+
9,Aa 97-111-SEQ ID NO: 1 (KWDGKETNFVREIKD; listed as Homo sapiens) [FABP7 #20],−
10,Aa 100-114-SEQ ID NO: 2 (GRRMHHTCPCLPGLA; listed as Homo sapiens) [PROK2 #18],−
11,Aa 102-116-SEQ ID NO: 1 (ETNFVREIKDGKMVM; listed as Homo sapiens) [FABP7 #21],+
12,Aa 105-119-SEQ ID NO: 2 (HTCPCLPGLACLRTS; listed as Homo sapiens) [PROK2 #19],−
13,Aa 106-120-SEQ ID NO: 1 (VREIKDGKMVMVSND; listed as Homo sapiens) [FABP7 #25],−
14,Aa 107-121-SEQ ID NO: 6 (REIKDGKMVMTLTFG; listed as Homo sapiens) [FABP7 #22],−
15,Aa 110-124-SEQ ID NO: 2 (LPGLACLRTSFNRFI; listed as Homo sapiens) [PROK2 #20],++
16,Aa 111-125-SEQ ID NO: 1 (DGKMVMVSNDNSPFF; listed as Homo sapiens) [FABP7 #26],+
17,Aa 112-126-SEQ ID NO: 6 (GKMVMTLTFGDVVAV; listed as Homo sapiens) [FABP7 #23],−
18,Aa 115-129-SEQ ID NO: 2 (CLRTSFNRFICLAQK; listed as Homo sapiens) [PROK2 #21],+
19,Aa 116-130-SEQ ID NO: 1 (MVSNDNSPFFLVFFS; listed as Homo sapiens) [FABP7 #27],−
20,Aa 118-132-SEQ ID NO: 6 (LTFGDVVAVRHYEKA; listed as Homo sapiens) [FABP7 #24],+
21,Aa 121-135-SEQ ID NO: 1 (NSPFFLVFFSSPHTS; listed as Homo sapiens) [FABP7 #28],+++
22,Aa 126-140-SEQ ID NO: 1 (LVFFSSPHTSHLLPS; listed as Homo sapiens) [FABP7 #29],+
23,Aa 131-145-SEQ ID NO: 1 (SPHTSHLLPSSSLLL; listed as Homo sapiens) [FABP7 #30],+
24,Aa 136-150-SEQ ID NO: 1 (HLLPSSSLLLPFFLL; listed as Homo sapiens) [FABP7 #31],−
25,Aa 141-155-SEQ ID NO: 1 (SSLLLPFFLLPSFFN; listed as Homo sapiens) [FABP7 #32],−
26,Aa 146-160-SEQ ID NO: 1 (PFFLLPSFFNNTSLA; listed as Homo sapiens) [FABP7 #33],++
27,Aa 152-166-SEQ ID NO: 1 (SFFNNTSLARFFNYM; listed as Homo sapiens) [FABP7 #34],+

# Target: HLA DRB5 01:01
# Experiment: competitive HLA binding assay (legend: - No binding)
# Conditions: not given
row,Molecule,binding result
1,REIKDGKMVMTLTFG (FABP7 isoform 1 peptide; also called Pool 4 FABP7) [FABP7 peptide #22 (Aa 107-121 of SEQ ID NO: 6)],no binding
2,KSVVSLDGDKLVHIQ (also called Pool 3 FABP7) [FABP7 peptide #17 (Aa 82-96 of SEQ ID NO: 1)],no binding
3,VREIKDGKMVMVSND (also called Pool 5 FABP7) [FABP7 peptide #25 (Aa 106-120 of SEQ ID NO: 1)],no binding
4,AVITGACDKDSQCGG (also called Pool 1 PROK2) [PROK2 peptide #1 (Aa 28-42 of SEQ ID NO: 2)],no binding
5,LDGDKLVHIQKWDGK (also called Pool 3 FABP7) [FABP7 peptide #18 (Aa 87-101 of SEQ ID NO: 1)],no binding
6,DETTADDRNCKSVVS (also called Pool 3 FABP7) [FABP7 peptide #15 (Aa 72-86 of SEQ ID NO: 1)],no binding
7,DDRNCKSVVSLDGDK (also called Pool 3 FABP7) [FABP7 peptide #16 (Aa 77-91 of SEQ ID NO: 1)],no binding
8,TNSQNFDEYMKALGV (also called Pool 1 FABP7) [FABP7 peptide #3 (Aa 12-26 of SEQ ID NO: 1)],no binding
9,KWDGKETNFVREIKD (also called Pool 4 FABP7) [FABP7 peptide #20 (Aa 97-111 of SEQ ID NO: 1)],no binding
10,HLLPSSSLLLPFFLL (also called Pool 6 FABP7) [FABP7 peptide #31 (Aa 136-150 of SEQ ID NO: 1)],no binding
11,GKMVMTLTFGDVVAV (FABP7 isoform 1 peptide; also called Pool 4 FABP7) [FABP7 peptide #23 (Aa 112-126 of SEQ ID NO: 6)],no binding
12,LVHIQKWDGKETNFV (also called Pool 4 FABP7) [FABP7 peptide #19 (Aa 92-106 of SEQ ID NO: 1)],no binding
13,SSLLLPFFLLPSFFN (also called Pool 6 FABP7) [FABP7 peptide #32 (Aa 141-155 of SEQ ID NO: 1)],no binding
14,KALGVGFATRQVGNV (also called Pool 1 FABP7) [FABP7 peptide #5 (Aa 22-36 of SEQ ID NO: 1)],no binding
15,MVSNDNSPFFLVFFS (also called Pool 5 FABP7) [FABP7 peptide #27 (Aa 116-130 of SEQ ID NO: 1)],no binding
